In US20220281980A1 (Bristol-Myers Squibb, published 2022):

Assays:
[1] = biological target: T1, recombinant soluble human MICA*008 antigen (human, UniProt Q29983 24-307); test: SPR (Biacore T200, 37 C), antibody captured on anti-human Fc, antigen 500 and 50 nM
T1 construct: also called huIMICA-his allele *008; recombinant soluble MICA (allele 8)
T1 chain: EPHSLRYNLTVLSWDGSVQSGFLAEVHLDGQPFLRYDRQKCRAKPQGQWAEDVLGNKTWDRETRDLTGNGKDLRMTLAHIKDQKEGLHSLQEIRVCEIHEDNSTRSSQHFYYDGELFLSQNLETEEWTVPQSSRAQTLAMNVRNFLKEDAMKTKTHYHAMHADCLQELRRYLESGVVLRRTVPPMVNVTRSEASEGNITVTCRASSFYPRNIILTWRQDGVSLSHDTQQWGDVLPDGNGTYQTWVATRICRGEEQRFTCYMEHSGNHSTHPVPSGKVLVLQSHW
Protocol: (§1) Anti-MICA/B antibodies were captured to α-human Fc surfaces. MICA allele antigens were injected at high and low nanomolar concentrations (500 nM and 50 nM, except indicated otherwise). The results for antibodies MICA.36 and MICA.38 (MICA.2 with a Ser inserted between residues 95 and 96 in the light chain) are shown in Table 2 below.

[2] = biological target: T2, recombinant soluble human MICA*009 antigen (human, UniProt Q29983 24-307); test: as above
T2 construct: also called huIMICA-his allele *009
T2 chain: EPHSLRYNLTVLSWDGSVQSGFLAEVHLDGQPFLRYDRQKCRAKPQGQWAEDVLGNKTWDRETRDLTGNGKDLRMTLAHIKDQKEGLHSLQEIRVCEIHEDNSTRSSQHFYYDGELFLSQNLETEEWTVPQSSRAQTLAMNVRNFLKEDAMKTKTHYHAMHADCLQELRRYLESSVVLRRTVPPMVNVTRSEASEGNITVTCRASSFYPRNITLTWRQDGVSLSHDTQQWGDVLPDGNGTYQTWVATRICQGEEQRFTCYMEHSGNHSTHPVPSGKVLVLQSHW
Protocol: as §1

[3] = biological target: T3, recombinant soluble human MICA*002 antigen (human, UniProt Q29983 24-307); test: as above
T3 construct: also called huIMICA-his allele *002
T3 chain: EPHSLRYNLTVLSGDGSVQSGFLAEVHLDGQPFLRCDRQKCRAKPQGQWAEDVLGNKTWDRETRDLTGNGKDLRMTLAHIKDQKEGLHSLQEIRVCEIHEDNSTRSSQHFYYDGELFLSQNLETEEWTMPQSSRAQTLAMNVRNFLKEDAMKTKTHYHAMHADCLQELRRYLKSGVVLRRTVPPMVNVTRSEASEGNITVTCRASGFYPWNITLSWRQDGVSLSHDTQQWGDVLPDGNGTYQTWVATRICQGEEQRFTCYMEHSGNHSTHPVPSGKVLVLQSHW
Protocol: as §1

[4] = biological target: T4, recombinant soluble human MICA*004 antigen (human, UniProt Q29983 24-307); test: as above
T4 construct: also called huIMICA-his allele *004
T4 chain: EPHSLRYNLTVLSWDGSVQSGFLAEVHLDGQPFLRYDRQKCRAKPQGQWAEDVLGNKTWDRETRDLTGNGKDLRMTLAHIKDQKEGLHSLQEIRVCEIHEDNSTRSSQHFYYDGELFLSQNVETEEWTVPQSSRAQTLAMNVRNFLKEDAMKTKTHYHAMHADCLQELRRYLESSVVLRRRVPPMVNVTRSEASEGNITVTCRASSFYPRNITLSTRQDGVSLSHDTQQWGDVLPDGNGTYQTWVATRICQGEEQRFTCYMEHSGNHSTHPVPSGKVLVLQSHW
Protocol: as §1

[5] = biological target: T1, recombinant soluble human MICA*008 …; test: SPR (Biacore T200, 37 C), antibody captured on anti-human Fc, range over both antigen concentration sets
Protocol: as §1

[6] = biological target: T2, recombinant soluble human MICA*009 …; test: as above
Protocol: as §1

[7] = biological target: T4, recombinant soluble human MICA*004 …; test: as above
Protocol: as §1

[8] = biological target: T1, recombinant soluble human MICA*008 …; test: SPR (Biacore T200, 37 C), antibody captured on anti-human Fc, antigen 100 and 10 nM
Protocol: as §1

[9] = biological target: T2, recombinant soluble human MICA*009 …; test: as above
Protocol: as §1

[10] = biological target: T4, recombinant soluble human MICA*004 …; test: as above
Protocol: as §1

- koff [1]: 0.000565 s⁻¹
- kon [1]: 140000 M⁻¹ s⁻¹
- koff [2]: 0.000603 s⁻¹
- kon [2]: 70100 M⁻¹ s⁻¹
- Kd [3]: > 250 nM
- koff [3]: 0.0161 s⁻¹
- kon [3]: 28600 M⁻¹ s⁻¹
- koff [4]: 0.000591 s⁻¹
- kon [4]: 95200 M⁻¹ s⁻¹
- Kd [5]: 4 to 5.1 nM
- Kd [6]: 8.6 to 11.9 nM
- Kd [7]: 6.2 to 13.8 nM
- koff [8]: 0.000606 s⁻¹
- kon [8]: 120000 M⁻¹ s⁻¹
- koff [9]: 0.000642 s⁻¹
- kon [9]: 54100 M⁻¹ s⁻¹
- koff [10]: 0.000637 s⁻¹
- kon [10]: 46200 M⁻¹ s⁻¹
B1: MICA.36 hIgG1 (antibody)
heavy: not shown
light: AIQLTQSPSSLSASVGDRVTITCRASQGISSALAWYQQKPGKVPKSLIYDASSLESGVPSRFSGSGSGTDFTLTISSLQPEDFATYYCQQFNSYPITFGQGTRLEIKRTVAAPSVFIFPPSDEQLKSGTASVVCLLNNFYPREAKVQWKVDNALQSGNSQESVTEQDSKDSTYSLSSTLTLSKADYEKHKVYACEVTHQGLSSPVTKSFNRGEC
notes: Recombinant form of hybridoma 19G6 with wild type human IgG1 (236G), fucosylated; also called MICA.36hIgGl; MICA.36 IgG1
